Laboratory results from a protein production outcome set (Wang et al. 2014).

Assay: label from the status in PepcDB records
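Note: failed if final PepcDB status was selected cloned or expressed and not failed if soluble or beyond.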

Sequence	protein production
MAKSKSSQGASGARRKPAPSLYQHISSFKPQFSTRVDDVLHFSKTLTWRSEIIPDKSKGTLTTSLLYSQGSDIYEIDTTLPLKTFYDDDDDDDNDDDDEEGNGKTKSAATPNPEYGDAFQDVEGKPLRPKWIYQGETVAKMQYLESSDDSTAIAMSKNGSLAWFRDEIKVPVHIVQEMMGPATRYSSIHSLTRPGSLAVSDFDVSTNMDTVVKSQSNGYEEDSILKIIDNSDRPGDILRTVHVPGTNVAHSVRFFNNHLFASCSDDNILRFWDTRTADKPLWTLSEPKNGRLTSFDSSQVTENLFVTGFSTGVIKLWDARAVQLATTDLTHRQNGEEPIQNEIAKLFHSGGDSVVDILFSQTSATEFVTVGGTGNVYHWDMEYSFSRNDDDNEDEVRVAAPEELQGQCLKFFHTGGTRRSSNQFGKRNTVALHPVINDFVGTVDSDSLVTAYKPFLASDFIGRGYDD	failed
TGPQGPPGPAGPKGAKGETGPQGPPGPAGPKGAKGDSGVPLSYEFTQKVESSNGTAVFGLLSNGFVEVRITGSYSSDVFNIPYNYRPLKAGTQMALFSTSGVGVAKVGEDKITIQGYSRNAQCSGTVLYPHREF	failed
MTKLINFLAEYQREIESQPIELDLALFSRLVGLPFEAVLTQPSAPLVEACMKLIEFVDNENYLILPADRQMLEQIAFSNRYQSVQICDVVQGPHRFLAATFVLSKTTKVIAFRGPNGTLLSWKADLHFSFSSINKLKIQAHQYLLQALQHDNQNIYCVGFSQGASIAALACMDISDTHRHRIQTIIFDSPGLPDDHYQSPIPIIELVPPLSLFALVGEHPFHQITISSSSTGIWQHDLYSWEADSHGEFAKNIGITNPTTIQHQFIQLLPSNITDENIDRTLNVAISIFSQLNFHSTSELIKHWNQFNALIQTEITAENIVVKTAILRLQKLIFKNAALNLQSIPLN	failed
MSERAIAHLGPVGTYAEMAALRFQAWLTQQDQQPSRLLACRSIPATLQTLADGAVDYAVVPVENSVEGSVAATLDSLWQLPQLSIQRALILPIAHALISFESDRTAIRQVLSHPQALAQCQQWLQRHLPQAELIPANSTTEALQDLERHPQRAVIASTRAAELYQMPIQSFPINDSPDNRTRFWVISRSPTPGGACTSLNFSLDANVPGALVKPLQILADRRINLSRIESRPTKRSLGEYLFFLDLEADLRDPAIAAAVQAVADCTEQLRVLGSYDSLDFTQSVLVPAQAR	failed
MANKFSAAVVYAVFSSFALNFFYQPGHVYASGATGAAQVVTELVARISGHNILPISASLILVNAPLFILAWRGIGKQFTVYTVITVVMSSVFIHFIPVTPLTHEPVINAVFGGAIMGFGVGNAMKSGISSGGTDIVSLYMRKKTGRSVGTLAFLVNGVIIFTAGVLFGWEYMLYSLIAIFVNSRVQDAIFTRQKRLQVMIVTKNPELLTKKLVNRFKHGVTILHDAEGGYTHTSQTVLMTVITMYEYQEFKDIIQKYDEHAFVSISENVRVLGKFAEVED	failed
MEKAPLLLETVEQAVRILQESPFVAIWNYKVLSVQAGAVALALPAQPQFYRPGGIIQGGCLMTLADTAFWLAAMTELGIDAPIVTLEMKTHFLRAAQADVYCRAEVMKSGRRVTYGTATITDAAGQTLSHHTLTYLAALEHHHHHH	failed
MRYVLALFFYRVFLLLLTPIVLLVLLIRSFNHPEYRQRLFERLGFFPKPYKQGGIVVHAASVGEVIALKSFIEKLLVNYPDLPITITSFTPTGSAQITKLFGRRVQHGYLPLDIFPCTTLFLHRLKPKMIIFMETELWPNLIAQCDQHQIKLLLINGRLSKKSLTSYQKLSALMAPCLNRFDMILTQSQENLTHFLQLGAHQSRCVNSGNLKFDISVNEQVINKKAELAKLLFADDSQAKRTVWLVASTHEGDEAITLTAFKELLSQYPSLLLVLVPRHPERFEQVANLCLTKQLSLAKRSENTIINNEQVWLLDSLGELMAAFALSDIVTMGGSFSEVGGHNPLEPALFNKPVIVGHNMSNFNEIMQQLRQENAIIELTNNTPTNESSAQLVNEVSALLQQPTRQKTLGENALKVVLKNQGASEKTLAQVVNLLPTRVNITSTTPLGDNS	failed
MQYATLELNNAFKVLFSLRQVQAAEMVIAPGDREGGPDNRHRGADQWLFVVDGAGEAIVDGHTQALQAGSLIAIERGQAHEIRNTGDTPLKTVNFYHPPAYDAQGEPLPAGEG	not failed
CPLLLRVFTTNNGRHHRMDEFSRGNVPSSELQIYTWMDATLKELTSLVKEVYPEARKKGTHFNFAIVFTDVKRPGYRVKEIGSTMSGRKGTDDSMTLQSQKFQIGDYLDIAIT	failed
MNLVGIVGTNSERSTNRKLLRFMAEHFAPQAAIEVLEIKDLPAFDEPENKTAPAAVTAFSKKIAAADGVIIATPEYNHTIPAPLGSALEWIAYTSRVLVNKPVMIVGCSLGALGTSRAQAHLRQILDAPELKARVMPGTEFFLGHSEHVLDDDFNLNNPEKVAELEEHFTEFQDFVIVTNQIVKQADTDRKLEHHHHHH	not failed
ARDPAKLKQVAGQPRLREAVIRLMRGTDVIRVKMYALNGITLFSTDASQIGEDESDDDGFRSAAAGTPASELAHNHSIDAFERTLTDRDIISTYVPVHDPAGKIEGVLEIYLDATPFVADSDQQ	failed
MVKNEVLMRVAELLKHRAENLVKHTEFKQWMSPSVREYWDDILNKTQSRPLFGWVKDLHLPANEDTPIPEPIELKPEAQALYDELQTQVGEVIHTGDWLLVDQERINQFGAVTEDMQWIHTNPDRAALESPFKTTIAHGFLTLALLPKLTDSVDEEKTLFPTAKMVVNIGLNSVRFPYPVKAGNRVRAVSTLSKVTPIKKGLEIEREIKVEIEGVRRPGCVVVSVIQLHF	failed
MESSAINIAIVVVYLLAMLAFGWWGKSRTKNNSDFLVAGRRLGPFLYTGTMAAVVLGGASTVGGVGLGYKFGISGMWLVVAIGSGVLLLSLLFAGTIQKLKIYTVSQMLTLRYGSTATQTSGIVMLAYTLMLCATSTGAYATIFVVLFGWERWLAIAIGGAIVLVYSTIGGMWSITLADQVQFVIKTVGIFFLMLPFALNAAGGLDGIRARVDESFFDIGGIGLQTIITYFVVYTLGLLIGQDIWQRVFTAKTPTVARWGGATAGVYCILYGFAGALIGMAASVALSGVEIAAKDDVYAEVATRLLPIGIGGLVLAAAVAAMMSTASGALIAAATVARADVMPFVASWFGKKVDTSDSDNPEHDVKANRYWVLGLGIVAIIIAISTKDVVAALTIAYDILVGGLLVAIIGGLVWKRGTGIAAAWSMAAGSVITLGTMIILEINAEVPLDGIYANEPIYFGLIASAVVYVVVSLLSKPTDPAVMKAWTDRVAGTRVAEEELTTPAS	failed
MDPTEMRYLEEENGAMMKTFKDAVTGFATGKTSLVFIGVEQLVQNFRAKRDFFNGAHITMTKVARTHY	failed
MRNPFERMPTVLTADELIDKAFRRAEKAASSFKPRGNKVKKARLREELRVRTVSNVVRDNLRKVLERTPGLSTLPKFYQELVDVLVDRDTFHKAMAGIDWAIRIIRELEERYVERIRYSNDPNEIAELRRQFYGRVASVLRDIDDRLRYLNKAREVLKDLPVVDLEIPTVVIAGHPNVGKSTLLKALTTAKPEIASYPFTTRGINVGQFEDGYFRYQIIDTPGLLDRPISERNEIEKQAILALRYLGNLIIYIFDPSEHCGFPLEEQIHLFEEVHGEFKDLPFLVVINKIDVADEENIKRLEKFVKEKGLNPIKISALKGTGIDLVKEEIIKTLRPLAEKVAREKIERELRRYRSYLLEHHHHHH	failed
MFPQADEPERDTLPGQEEDPLPTGQEQPSITPIAGTEAQYIDIAEWYDSDSILYITDEGENSLVYIYNLLTGEKKSLFSSDDAVIKVTANSTHSQFAIQTVTQAGDAPVSIIDSQGELLMKLEDFGEDFSIFWSPYEEDKLIAVAYLPDWEQDLYLIDTSDKQVEMLDLDQSFVQWLDERTIVYLDWNGDSEGYYAPLYTFDLETEEVVLLHEEAIATLGFGDHVTLIIERPEQGAEVTTYQFWNGSEQLAEWSVPILRTYSEQWWIPFYDFDLNKRLFYAYKPNRTGDYFEYDGGFSFIAFDVDHGEETVLFESDEHVPFRLSPTGQRALFGPRLETVMDLPTGESNSLIELEHHHHHH	failed
MVSSLFINPFSEDAREIVRKYGSLDTIDDTRDELLEIGRRTRGQNLADNSLLPASIAELAVKRLEWYLRRQRKDFNHRDYAYLMNPEIEEYDVLAFYILAQAAGAGFMKASREARLVVESAGAMVEDRLNVFGGEREEIMAEVLYELGSEGLRWTELADLLGSGKLKLTDLILKEGRVIIDRDEFITSFQDSIRDRSPDRLYDILVGLEVRETMISRMIMQRTEEYIGMVREMSSTVEVHPLILETAERIRETVEEIMSFTGGPVKSARPGKLVQEAFPPCIRGTLDGVRSGNRNDAIVLLLTSFISYARLYPSVFRDRTPMKVSDLDPDLRITLGEILPVIYDAADRCEPPLFEDDPQEKLNITAKLGFGVHDMPELENEGESKWYTPMSCEKIKIHLPDLCRPDKLCSSISNPLTYYNRKRWKLRSSGEKEELEHHHHHH	not failed
MLNDQEVLSMSSVSLSPLFRRSIGFDRLNDLFDYAMQSETPNYPPYNIEKDGENNYRILIASAGFDQDELRIHLENQVLTISGQPDSEQVDKNIEYLHKGIARRAFKLSLRLDEHIEVQQADYENGLLKIELQRIIPEEKMPRQIPIGQSKSIKNIESSKIVNS	failed
MINSVGVVRKEAENCNCLQVFFVSGSFKVDSVEAKKKEENFRETLRDMANSKYEYVKSFELEDEVMLPNLMVVRIDGRDFSRFSQVHEFEKPNDETALNLMNSCSAAVLEEFPDIIFAYGYSDEYSFVFKKTSRFYQRRASKILSLVASFFAAVYVTKWKEFFPQRKLLYAPSFSSKVVSCASAEVLQAYLAWRQQDCHANNQYDTCFWMLVKSGKSVSETQEILKDTQKQQKNELLFQKFGINYKTLPELFRQGSCLFKKKVEETVKHDENGNPVKRLRRKAVFVHSENIAGRSFWNEQPSLYNDLGHFTKDIGKIEPDFIRSFQFENKLLPLTWVVVRIDGCHFHRFSDVHEFEKPNDEQALKLMNSCAVAVLEEFEDIHFAYGVSDEYSFVLKKESELYKRQSSKIISAVASFFTSTYVLQWGEFFPHKELKYPPSFDGRAVCYPTYNILLDYLAWRQVDCHINNQYNTCFWMLVKSGKNKTQSQDYLKGTQTREKNELLSRQFGIEYNSLPVIFRMGSSVFRLKEAENGVVSGKKLEGEVVVDHCNIIERCFWEEHLHILSYS	failed
SAPPKQSWEQAVDTLRDIGALNAAGQITELGRTLATLPTDPRLGASLLHCGGGAAPTIAALSLDARGDIPRAIAAMSHQQRFTREVARLAGFVP	failed
MLKNIDPALNADVLHALRAMGHGDTLVISDTNFPSDSVARQTTVGKVLHIDNVSAARAMKAILSVLPLDTPLQPSVGRMEVMGAPDQLEPVQVEVQQEIDAAEGKSAPMYGIERFAFYEKAKQAYCVITTGETRFYGCFLLTKGVIPPK	not failed
MQQINFYRQRVAINVLAKDIANAKAIYEAAEGHAVIGVLSAQFATVEEGVPEVKRWMAEVPSISVGLGAGDPAQYYKAAMIAAHTHPAHVNQTFTGSGFAAGALAATGGEQTHINALVSPTGTPGEVVISTGVSSSQGTPARVSCEAAVRMMQDMGAHAAKFFPMGGEKSLPELYALATTAARHGMTLIEPTGGISLDNFGIILQTCLEAGVPRVMPHVYSSIIDPQTGNTRPEDIIQLMEIVKALV	failed
